Experimental data taken from article PMC12616241 (2025).

Assays:
Test in all cases: SPR
FcγRIIa-R131 = target: FcγRIIa-R131
FcγRIIa-H131 = target: FcγRIIa-H131
[1] = target: FcγRIIIa-F158 (His-tagged recombinant) (human, UniProt P08637 17-208)
[2] = target: FcγRIIIa-V158 (His-tagged recombinant) (human)
Sequence of FcγRIIIa-V158 (His-tagged recombinant) (human) (chain, as listed by the source): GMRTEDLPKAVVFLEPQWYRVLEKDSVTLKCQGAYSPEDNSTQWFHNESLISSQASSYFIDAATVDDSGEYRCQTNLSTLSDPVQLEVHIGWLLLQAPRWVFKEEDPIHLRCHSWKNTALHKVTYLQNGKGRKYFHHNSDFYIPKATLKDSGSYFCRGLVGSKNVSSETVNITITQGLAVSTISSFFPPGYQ

Sequence of FcγRIIIa-F158 (His-tagged recombinant) (P08637 17-208): as the sequence (chain, as listed by the source) above, with V160F counted along it

B1: margetuximab (antibody)
chain 1: QVQLQQSGPELVKPGASLKLSCTASGFNIKDTYIHWVKQRPEQGLEWIGRIYPTNGYTRYDPKFQDKATITADTSSNTAYLQVSRLTSEDTAVYYCSRWGGDGFYAMDYWGQGASVTVSS
chain 2: DIVMTQSHKFMSTSVGDRVSITCKASQDVNTAVAWYQQKPGHSPKLLIYSASFRYTGVPDRFTGSRSGTDFTFTISSVQAEDLAVYYCQQHYTTPPTFGGGTKVEIK
Kd (FcγRIIa-R131): 1440 nM | Kd (FcγRIIa-H131): 764 nM | Kd [1]: 113 nM | Kd [2]: 91.7 nM
